The assay addresses Orai expressed in cell membranes (Drosophila melanogaster) (UniProt Q9U6B8). The assay can be described thus: cross-linking.

In PMC3695727 one finds stoichiometry N data, which are given here for one substance.

As a reminder, the stoichiometry N is a count of units in the complex or per binding partner. As for “Orai expressed in cell membranes (from UniProt Q9U6B8 1-351) (natural protein)”, the stoichiometry N turned out to be 6.
